Source: PMC4491177, “Co-translational capturing of nascent ribosomal proteins by their dedicated chaperones” (Nature Communications, 2015)
Numbering of substitutions follows the chain as printed. Numbers in names are those of the source. Ends that are not written are not given here.

Assays:
[1] = target: T1, ScSqt1.53C (WD-repeat β-propeller domain of Sqt1) (Saccharomyces cerevisiae, UniProt P35184); assay: isothermal titration calorimetry (ITC), S. cerevisiae; assay type: binding; conditions: for K / N / ΔH / ΔS: ScSqt1.53C, 15 °C, One Set of Sites fit
T1 construct: ScSqt1.53C (residues 53–431); (His)6 (C); made in house; host or cells: E. coli Rosetta(DE3)
T1 sequence (P35184 53-431): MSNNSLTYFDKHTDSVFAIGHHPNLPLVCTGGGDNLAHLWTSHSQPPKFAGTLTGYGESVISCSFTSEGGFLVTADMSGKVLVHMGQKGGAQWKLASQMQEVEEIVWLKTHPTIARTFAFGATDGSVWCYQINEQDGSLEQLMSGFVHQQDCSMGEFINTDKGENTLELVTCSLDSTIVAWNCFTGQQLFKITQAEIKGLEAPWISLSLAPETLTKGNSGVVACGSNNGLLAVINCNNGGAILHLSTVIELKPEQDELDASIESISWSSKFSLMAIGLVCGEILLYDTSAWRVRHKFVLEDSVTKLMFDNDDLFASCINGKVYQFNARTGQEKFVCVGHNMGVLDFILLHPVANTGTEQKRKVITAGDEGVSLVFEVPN
Experimental: ITC experiments were performed on a MicroCal ITC 2000 instrument (GE Healthcare). The following peptides, corresponding to the N-terminal 19 (without N-terminal methionine) or 20 amino acids of S. cerevisiae and C. thermophilum Rpl10, were synthesized with a free acid group at the C terminus (peptides&elephants): Rpl10(1–20) NH2-[…]-COOH, Rpl10(2–20) NH2-[…]-COOH, ctRpl10(1–20) NH2-[…]-COOH and ctRpl10(2–20) NH2-[…]-COOH. Peptides (1 mg each) were dissolved in the appropriate volume of gel-filtration buffer (20 mM HEPES–NaOH (pH 7.5), 200 mM NaCl, 20 mM KCl and 20 mM MgCl2), which was used for the purification of ScSqt1.53C and ctSqt1.52C, to obtain 1 mM stock solutions. Concentrations of proteins were determined by measuring the A280 using a NanoDrop Lite spectrophotometer (Thermo Scientific). For determination of the C. thermophilum Sqt1/L10-N binding, 200 μl of ctSqt1.52C (10 μM) was added to the sample cell and 2 μl of 100 μM solutions of the peptides was titrated in at 25 °C. For determination of the S. cerevisiae Sqt1/L10-N binding, 200 μl of ScSqt1.53C (100 μM) was added to the sample cell and 2 μl of 1 mM solutions of the peptides were titrated in at 15 °C. ITC data were processed using the Origin ITC Software (OriginLab) and thermodynamic parameters were obtained by fitting the data to a One Set of Sites binding model.

Sqt1 = assay: Y2H interaction with Sqt1; assay type: binding, S. cerevisiae; conditions: reporter strain PJ69-4A, HIS3 and ADE2 reporters, 3 days at 30 °C
Experimental: For Y2H interaction assays, plasmids expressing bait proteins, fused to the Gal4 DNA-binding domain (G4BD), and prey proteins, fused to the Gal4 activation domain (G4AD), were co-transformed into reporter strain PJ69-4A. Y2H interactions were documented by spotting representative transformants in 10-fold serial dilution steps onto SC-Trp-Leu, SC-Trp-Leu-His (HIS3 reporter) and SC-Trp-Leu-Ade (ADE2 reporter) plates, which were incubated for 3 days at 30 °C. Growth on SC-Trp-Leu-His plates is indicative of a weak/moderate interaction, whereas only relatively strong interactions permit growth on SC-Trp-Leu-Ade plates.

Sqt1-Flag = assay: in vitro binding assay, Ni-affinity co-purification of Sqt1-Flag; set-up: species or system S. cerevisiae; conditions: co-expression in E. coli, C-terminally (His)6-tagged Rpl10, Ni-affinity, SDS–PAGE and western blot
Experimental: For in vitro binding assays between Rpl10-(His)6 and Sqt1-Flag or between ctRpl10-(His)6 and ctSqt1, proteins were co-expressed from pETDuet-1 (Novagen) in Rosetta(DE3) (Novagen) or BL21(DE3) (Novagen) E. coli cells, respectively. Cells were grown in 200 ml of lysogeny broth medium and protein expression was induced at an OD600 of ∼0.6–0.8 by the addition of isopropyl-β-D-thiogalactoside to a final concentration of 0.5 mM. After 5 h of growth at 30 °C, cells were harvested and stored at −80 °C. Cells were resuspended in 25 ml lysis buffer (50 mM Tris-HCl (pH 7.5), 200 mM NaCl, 1.5 mM MgCl2 and 5% glycerol) and lysed with a M-110L Microfluidizer (Microfluidics). The lysate (30 ml volume) was adjusted by the addition of 300 μl 10% NP-40 to 0.1% NP-40 (note that from here onwards all buffers contained 0.1% NP-40). An aliquot of 100 μl of total extract (sample T) was taken and mixed with 100 μl of 6 × loading buffer. The total extract was then centrifuged at 4 °C for 20 min at 14,000 r.p.m. The soluble extract was transferred to a 50-ml Falcon tube and, as above, an aliquot of 100 μl of soluble extract (sample S) was taken and mixed with 100 μl of 6 × loading buffer. The insoluble pellet fraction (sample P) was resuspended in 3 ml of lysis buffer, and 10 μl thereof were mixed with 90 μl of lysis buffer and 100 μl of 6 × loading buffer. […]

ctSqt1.52C-(His)6 [2] = target: T2, ctSqt1.52C-(His)6 (Chaetomium thermophilum); assay: ITC
T2 chain: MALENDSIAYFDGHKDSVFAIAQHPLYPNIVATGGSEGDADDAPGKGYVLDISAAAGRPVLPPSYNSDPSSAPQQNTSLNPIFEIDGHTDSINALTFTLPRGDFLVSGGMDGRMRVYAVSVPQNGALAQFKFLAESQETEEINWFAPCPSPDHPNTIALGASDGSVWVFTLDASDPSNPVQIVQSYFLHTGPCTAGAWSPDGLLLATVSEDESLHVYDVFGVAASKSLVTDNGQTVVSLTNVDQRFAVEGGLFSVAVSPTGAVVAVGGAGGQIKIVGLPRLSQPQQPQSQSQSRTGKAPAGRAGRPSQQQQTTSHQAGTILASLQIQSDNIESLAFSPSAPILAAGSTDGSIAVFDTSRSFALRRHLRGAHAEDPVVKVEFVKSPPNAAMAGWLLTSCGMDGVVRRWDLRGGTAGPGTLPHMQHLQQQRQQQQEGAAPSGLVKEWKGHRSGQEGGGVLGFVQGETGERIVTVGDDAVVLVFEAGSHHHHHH

ctSqt1.52C-(His)6 [3] = target: T2, ctSqt1.52C-(His)6; assay: ITC; 200 μl ctSqt1.52C (10 μM) in the cell, 2 μl injections of 100 μM peptide, 25 °C; 20 mM HEPES–NaOH (pH 7.5), 200 mM NaCl, 20 mM KCl, 20 mM MgCl2; One Set of Sites model; approximate Kd
Sqt1.53C-(His)6 [4] = target: T3, Sqt1.53C-(His)6 (S. cerevisiae, UniProt P35184 53-431); assay: ITC; 200 μl ScSqt1.53C (100 μM) in the cell, 2 μl injections of 1 mM peptide, 15 °C; 20 mM HEPES–NaOH (pH 7.5), 200 mM NaCl, 20 mM KCl, 20 mM MgCl2; One Set of Sites model; approximate Kd; conditions: both partners purified
T3 construct: Sqt1, S. cerevisiae, residues 53–431 (WD-repeat β-propeller domain); the ITC methods name only 'ScSqt1.53C'; the only free Sqt1.53C whose purification is described is Sqt1.53C-(His)6; also called ScSqt1.53C; source: E. coli Rosetta(DE3), purified (Ni-NTA, size-exclusion chromatography)
T3 sequence (looked up): T1 sequence (P35184 53-431)

Sqt1.53C-(His)6 [5] = target: T4, Sqt1.53C-(His)6 (S. cerevisiae, UniProt P35184 53-431); assay: ITC
T4 chain: T1 sequence (P35184 53-431)

ARRPARCYRYQKNKPYPKS [ScL10-N(2–20)]
K [1]: 4.78E7±2.57E7
N [1]: 1.076±0.0048
ΔH [1]: −1.187E4±102.9
ΔS [1]: −6.02
preference of Sqt1 for the L10-N peptide lacking Met1 ([1]; vs peptide containing Met1, S. cerevisiae): only a slight preference

amino acids 1–20 of Rpl10: amino acids 1–20 of Rpl10, Y2H bait fused to G4BD (MARRPARCYRYQKNKPYPKS; also: fused to Gal4 DNA-binding domain; UniProt P41805 1-20, looked up, fragment)
Y2H interaction with Sqt1 (Sqt1): sufficient to mediate the interaction with Sqt1

MARRPARCYRYQKNKPYPKS [ScL10-N(1-20)]
K [1]: 2.33E7±1.79E7
N [1]: 1.09±0.00692
ΔH [1]: −1.101E4 +/−158.6
ΔS [1]: −4.45

L10-N: N-terminal residues of Rpl10 (general term; co-crystals and pull-downs use co-expressed Rpl10(1–20)-(His)6) (MARRPARCYRYQKNKPYPKS; not fully specified)
co-purification with / interaction with Sqt1 (Sqt1-Flag): required and sufficient for a robust interaction both with full-length Sqt1 and its β-propeller domain

ARRPARCYRYCKNKPYPKS [ctRpl10(2–20) peptide]
Ka (ctSqt1.52C-(His)6 [2]): 2.82e+07 M⁻¹
Kd (ctSqt1.52C-(His)6 [3]): 35 nM

MARRPARCYRYCKNKPYPKS [ctRpl10(1–20) peptide]
Ka (ctSqt1.52C-(His)6 [2]): 2.26e+06 M⁻¹
Kd (ctSqt1.52C-(His)6 [3]): 442 nM

B1: first 64 amino acids of Rpl10: first 64 amino acids of Rpl10, Y2H bait (protein, UniProt P41805 1-64, looked up, fragment)
chain: MARRPARCYRYQKNKPYPKSRYNRAVPDSKIRIYDLGKKKATVDEFPLCVHLVSNELEQLSSEA
modifications: Y2H bait
notes: first 64 amino acids of Rpl10, Y2H bait
Y2H interaction with Sqt1 (Sqt1): binds

B2: Arg10 to glutamate: Rpl10 variant, Arg10 mutated to glutamate (protein, UniProt P41805 2-221, looked up, variant R10E)
Large ribosomal subunit …: ARRPARCYEYQKNKPYPKSRYNRAVPDSKIRIYDLGKKKATVDEFPLCVHLVSNELEQLSSEALEAARICANKYMTTVSGRDAFHLRVRVHPFHVLRINKMLSCAGADRLQQGMRGAWGKPHGLAARVDIGQIIFSVRTKDSNKDVVVEGLRRARYKFPGQQKIILSKKWGFTNLDRPEYLKKREAGEVKDDGAFVKFLSKKGSLENNIREFPEYFAAQA
Y2H interaction with Sqt1 (Sqt1): abolished

B3: Arg4 to glutamate: Rpl10 variant, substitution of Arg4 to glutamate (protein, UniProt P41805 2-221, looked up, variant R4E)
Large ribosomal subunit …: B2 Large ribosomal subunit … with R3E, E9R
Y2H interaction with Sqt1 (Sqt1): only slightly reduced the interaction with Sqt1

B4: Rpl10-(His)6: C-terminally (His)6-tagged Rpl10 (protein)
chain: MARRPARCYRYQKNKPYPKSRYNRAVPDSKIRIYDLGKKKATVDEFPLCVHLVSNELEQLSSEALEAARICANKYMTTVSGRDAFHLRVRVHPFHVLRINKMLSCAGADRLQQGMRGAWGKPHGLAARVDIGQIIFSVRTKDSNKDVVVEGLRRARYKFPGQQKIILSKKWGFTNLDRPEYLKKREAGEVKDDGAFVKFLSKKGSLENNIREFPEYFAAQA
modifications: left off: (His)6, C-terminal, kept
notes: C-terminally (His)6-tagged Rpl10
co-purification with / interaction with Sqt1 (Sqt1-Flag): efficient co-purification of Sqt1-Flag

B5: Rpl10(1–20) peptide (peptide)
peptide: MARRPARCYRYQKNKPYPKS
notes: Rpl10 (uL16), S. cerevisiae, N-terminal 20 amino acids; free amino group at the N terminus, free acid group at the C terminus; also called ScL10-N peptide including Met1 (amino acids 1–20); source: synthetic peptide (peptides&elephants)
Kd (Sqt1.53C-(His)6 [4]): ~43 nM
Ka (Sqt1.53C-(His)6 [5]): 2.33e+07 M⁻¹

B6: Rpl10(2–20) peptide (peptide)
peptide: ARRPARCYRYQKNKPYPKS
notes: Rpl10 (uL16), S. cerevisiae, N-terminal 19 amino acids without the N-terminal methionine; free amino group at the N terminus, free acid group at the C terminus; also called ScL10-N peptide lacking Met1 (amino acids 2–20); source: synthetic peptide (peptides&elephants)
Kd (Sqt1.53C-(His)6 [4]): ~21 nM
Ka (Sqt1.53C-(His)6 [5]): 4.78e+07 M⁻¹
